Test results reported in paper PMC11574045, “A cofactor-induced repressive type of transcription factor condensation can be induced by synthetic peptides to suppress tumorigenesis” (The EMBO Journal, 2024).

B1: BACH1 (protein, UniProt O14867 1-736, looked up)
Transcription regulator …: MSLSENSVFAYESSVHSTNVLLSLNDQRKKDVLCDVTIFVEGQRFRAHRSVLAACSSYFHSRIVGQADGELNITLPEEVTVKGFEPLIQFAYTAKLILSKENVDEVCKCVEFLSVHNIEESCFQFLKFKFLDSTADQQECPRKKCFSSHCQKTDLKLSLLDQRDLETDEVEEFLENKNVQTPQCKLRRYQGNAKASPPLQDSASQTYESMCLEKDAALALPSLCPKYRKFQKAFGTDRVRTGESSVKDIHASVQPNERSENECLGGVPECRDLQVMLKCDESKLAMEPEETKKDPASQCPTEKSEVTPFPHNSSIDPHGLYSLSLLHTYDQYGDLNFAGMQNTTVLTEKPLSGTDVQEKTFGESQDLPLKSDLGTREDSSVASSDRSSVEREVAEHLAKGFWSDICSTDTPCQMQLSPAVAKDGSEQISQKRSECPWLGIRISESPEPGQRTFTTLSSVNCPFISTLSTEGCSSNLEIGNDDYVSEPQQEPCPYACVISLGDDSETDTEGDSESCSAREQECEVKLPFNAQRIISLSRNDFQSLLKMHKLTPEQLDCIHDIRRRSKNRIAAQRCRKRKLDCIQNLESEIEKLQSEKESLLKERDHILSTLGETKQNLTGLCQKVCKEAALSQEQIQILAKYSAADCPLSFLISEKDKSTPDGELALPSIFSLSDRPPAVLPPCARGNSEPGYARGQESQQMSTATSEQAGPAEQCRQSGGISDFCQQMTDKCTTDE
B2: PIAS2 (protein, UniProt O75928 1-621, looked up)
E3 SUMO-protein ligase PIAS2: MADFEELRNMVSSFRVSELQVLLGFAGRNKSGRKHDLLMRALHLLKSGCSPAVQIKIRELYRRRYPRTLEGLSDLSTIKSSVFSLDGGSSPVEPDLAVAGIHSLPSTSVTPHSPSSPVGSVLLQDTKPTFEMQQPSPPIPPVHPDVQLKNLPFYDVLDVLIKPTSLVQSSIQRFQEKFFIFALTPQQVREICISRDFLPGGRRDYTVQVQLRLCLAETSCPQEDNYPNSLCIKVNGKLFPLPGYAPPPKNGIEQKRPGRPLNITSLVRLSSAVPNQISISWASEIGKNYSMSVYLVRQLTSAMLLQRLKMKGIRNPDHSRALIKEKLTADPDSEIATTSLRVSLMCPLGKMRLTIPCRAVTCTHLQCFDAALYLQMNEKKPTWICPVCDKKAAYESLILDGLFMEILNDCSDVDEIKFQEDGSWCPMRPKKEAMKVSSQPCTKIESSSVLSKPCSVTVASEASKKKVDVIDLTIESSSDEEEDPPAKRKCIFMSETQSSPTKGVLMYQPSSVRVPSVTSVDPAAIPPSLTDYSVPFHHTPISSMSSDLPGLDFLSLIPVDPQYCPPMFLDSLTSPLTASSTSVTTTSSHESSTHVSSSSSRSETGVITSSGSNIPDIISLD
B3: POLR3C (protein, UniProt Q9BUI4 1-534, looked up)
DNA-directed RNA polymerase …: MTQAEIKLCSLLLQEHFGEIVEKIGVHLIRTGSQPLRVIAHDTGTSLDQVKKALCVLVQHNLVSYQVHKRGVVEYEAQCSRVLRMLRYPRYIYTTKTLYSDTGELIVEELLLNGKLTMSAVVKKVADRLTETMEDGKTMDYAEVSNTFVRLADTHFVQRCPSVPTTENSDPGPPPPAPTLVINEKDMYLVPKLSLIGKGKRRRSSDEDAAGEPKAKRPKYTTDNKEPIPDDGIYWQANLDRFHQHFRDQAIVSAVANRMDQTSSEIVRTMLRMSEITTSSSAPFTQPLSSNEIFRSLPVGYNISKQVLDQYLTLLADDPLEFVGKSGDSGGGMYVINLHKALASLATATLESVVQERFGSRCARIFRLVLQKKHIEQKQVEDFAMIPAKEAKDMLYKMLSENFMSLQEIPKTPDHAPSRTFYLYTVNILSAARMLLHRCYKSIANLIERRQFETKENKRLLEKSQRVEAIIASMQATGAEEAQLQEIEEMITAPERQQLETLKRNVNKLDASEIQVDETIFLLESYIECTMKRQ
B4: POU2AF1 (protein, UniProt Q16633 1-256, looked up)
POU domain class …: MLWQKPTAPEQAPAPARPYQGVRVKEPVKELLRRKRGHASSGAAPAPTAVVLPHQPLATYTTVGPSCLDMEGSVSAVTEEAALCAGWLSQPTPATLQPLAPWTPYTEYVPHEAVSCPYSADMYVQPVCPSYTVVGPSSVLTYASPPLITNVTTRSSATPAVGPPLEGPEHQAPLTYFPWPQPLSTLPTSTLQYQPPAPALPGPQFVQLPISIPEPVLQDMEDPRRAASSLTIDKLLLEEEDSDAYALNHTLSVEGF
B5: POU2F2 (protein, UniProt P09086 1-479, looked up)
POU domain, class 2, …: MVHSSMGAPEIRMSKPLEAEKQGLDSPSEHTDTERNGPDTNHQNPQNKTSPFSVSPTGPSTKIKAEDPSGDSAPAAPLPPQPAQPHLPQAQLMLTGSQLAGDIQQLLQLQQLVLVPGHHLQPPAQFLLPQAQQSQPGLLPTPNLFQLPQQTQGALLTSQPRAGLPTQAVTRPTLPDPHLSHPQPPKCLEPPSHPEEPSDLEELEQFARTFKQRRIKLGFTQGDVGLAMGKLYGNDFSQTTISRFEALNLSFKNMCKLKPLLEKWLNDAETMSVDSSLPSPNQLSSPSLGFDGLPGRRRKKRTSIETNVRFALEKSFLANQKPTSEEILLIAEQLHMEKEVIRVWFCNRRQKEKRINPCSAAPMLPSPGKPASYSPHMVTPQGGAGTLPLSQASSSLSTTVTTLSSAVGTLHPSRTAGGGGGGGGAAPPLNSIPSVTPPPPATTNSTNPSPQGSHSAIGLSGLNPSTGPGLWWNPAPYQP
B6: PIAS4 (protein, UniProt Q9JM05 2-507, looked up)
E3 SUMO-protein ligase PIAS4: AAELVEAKNMVMSFRVSDLQMLLGFVGRSKSGLKHELVTRALQLVQFDCSPELFKKIKELYETRYAKKSAEPGPQAPRPLDPLALHSMPRTPLSGPTVDYPVLYGKYLNGLGRLPTKTLKPEVRLVKLPFFNMLDELLKPTELVPQSAEKLQESPCIFALTPRQVEMIRNSRELQPGVKAVQVVLRICYSDTSCPQEDQYPPNIAVKVNHSYCSVPGYYPSNKPGVEPKRPCRPINLTHLMYLSSATNRITVTWGNYGKSYSVALYLVRQLTSSDLLQRLKTIGVKHPELCKALVKEKLRLDPDSEIATTGVRVSLICPLVKMRLSVPCRAETCAHLQCFDAVFYLQMNEKKPTWMCPVCDKPAAYDQLIIDGLLSKILSECEGADEIEFLAEGSWRPIRAEKEPSCSPQGPILVLGTSDANGLAPASSTPGIGSGLSGPGSAGSGAGAAGSLENGKTGADVVDLTLDSSSSSEDEDEDEDDDEDEDEGPRPKRRCPFQKGLVPAC
B7: PGR (protein, UniProt P06401 1-933, looked up)
Progesterone receptor: MTELKAKGPRAPHVAGGPPSPEVGSPLLCRPAAGPFPGSQTSDTLPEVSAIPISLDGLLFPRPCQGQDPSDEKTQDQQSLSDVEGAYSRAEATRGAGGSSSSPPEKDSGLLDSVLDTLLAPSGPGQSQPSPPACEVTSSWCLFGPELPEDPPAAPATQRVLSPLMSRSGCKVGDSSGTAAAHKVLPRGLSPARQLLLPASESPHWSGAPVKPSPQAAAVEVEEEDGSESEESAGPLLKGKPRALGGAAAGGGAAAVPPGAAAGGVALVPKEDSRFSAPRVALVEQDAPMAPGRSPLATTVMDFIHVPILPLNHALLAARTRQLLEDESYDGGAGAASAFAPPRSSPCASSTPVAVGDFPDCAYPPDAEPKDDAYPLYSDFQPPALKIKEEEEGAEASARSPRSYLVAGANPAAFPDFPLGPPPPLPPRATPSRPGEAAVTAAPASASVSSASSSGSTLECILYKAEGAPPQQGPFAPPPCKAPGASGCLLPRDGLPSTSASAAAAGAAPALYPALGLNGLPQLGYQAAVLKEGLPQVYPPYLNYLRPDSEASQSPQYSFESLPQKICLICGDEASGCHYGVLTCGSCKVFFKRAMEGQHNYLCAGRNDCIVDKIRRKNCPACRLRKCCQAGMVLGGRKFKKFNKVRVVRALDAVALPQPVGVPNESQALSQRFTFSPGQDIQLIPPLINLLMSIEPDVIYAGHDNTKPDTSSSLLTSLNQLGERQLLSVVKWSKSLPGFRNLHIDDQITLIQYSWMSLMVFGLGWRSYKHVSGQMLYFAPDLILNEQRMKESSFYSLCLTMWQIPQEFVKLQVSQEEFLCMKVLLLLNTIPLEGLRSQTQFEEMRSSYIRELIKAIGLRQKGVVSSSQRFYQLTKLLDNLHDLVKQLHLYCLNTFIQSRALSVEFPEMMSEVIAAQLPKILAGMVKPLLFHKK

Tested on: HEK293FT cells transfected with TF library
Experiment: Screening of TF condensates based on fluorescent puncta
Assay type: cell-based
Conditions: Figure 1B numerical data; TF library screen, one value per transcriptional factor
Outline: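 Cells were seeded onto plasmid/PEI-loaded wells (plasmid 1.6 μg/ml final) and grown 60 h. Medium with or without glucose followed for 12 h. Fixed, permeabilized cells were stained against Flag or GAL4 tags, and condensate puncta were quantified from 50 random fields per well.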

| Molecule | Z score of condensed fraction |
| --- | --- |
| B1 | -0.5247 |
| B2 | -0.03329 |
| B3 | 2.0488 |
| B4 | 2.502 |
| B5 | -0.2237 |
| B6 | -0.6594 |
| B7 | 1.815 |
